Consider one protein from US20120009171A1 (SHIRE HUMAN GENETIC THERAPIES, published 2012).

This data set concerns the molecule itself. The data set is described as follows: SEC-HPLC, mobile phase 100 mM sodium citrate pH 5.5 (self-association). The method, then: Waters HPLC systems were used for size exclusion and reversed phase HPLC analyses. For initial SEC-HPLC analysis, 50 μg of rhASA was injected on to an Agilent Zorbax GF-250 column (4.6 mm×250 mm) and run isocratically at 0.24 mL/min using a mobile phase of 100 mM sodium citrate pH 5.5 (octomer detection) with a detection wavelength of 280 nm. The analyses were repeated using mobile phase conditions of 100 mM sodium citrate, pH 7.0 (dimer detection).
Analysis by size exclusion HPLC detected some degradation for the 2 week thermal stressed sample formulated in 5 mM sodium phosphate with 154 mM NaCl at pH 7.0. The degradation was more evident by SEC-HPLC using a pH 5.5 mobile phase condition which induces association of rhASA to an octamer.
On the technique in general: SEC sorts molecules by how far they enter the pores of the column.

B1: recombinant human arylsulfatase A (rhASA) (enzyme)
chain: RPPNIVLIFADDLGYGDLGCYGHPSSTTPNLDQLAAGGLRFTDFYVPVSLCTPSRAALLTGRLPVRMGMYPGVLVPSSRGGLPLEEVTVAEVLAARGYLTGMAGKWHLGVGPEGAFLPPHQGFHRFLGIPYSHDQGPCQNLTCFPPATPCDGGCDQGLVPIPLLANLSVEAQPPWLPGLEARYMAFAHDLMADAQRQDRPFFLYYASHHTHYPQFSGQSFAERSGRGPFGDSLMELDAAVGTLMTAIGDLGLLEETLVIFTADNGPETMRMSRGGCSGLLRCGKGTTYEGGVREPALAFWPGHIAPGVTHELASSLDLLPTLAALAGAPLPNVTLDGFDLSPLLLGTGKSPRQSLFFYPSYPDEVRGVFAVRTGKYKAHFFTQGSAHSDTTADPACHASSSLTAHEPPLLYDLSKDPGENYNLLGGVAGATPEVLQALKQLQLLKAQLDAAVTFGPSQVARGEDPALQICCHPGCTPRPACCHCPDPHA
notes: By SEC-HPLC it associates to an octamer at pH 5.5 and is seen as a dimer at pH 7.0; also called recombinantly-prepared human arylsulfatase A; human ASA
Turning to B1, the binding result is reported as “binds”.
